From patent US20230070731A1, “COMPOSITIONS FOR SMALL MOLECULE CONTROL OF PRECISE BASE EDITING OF TARGET NUCLEIC ACIDS AND METHODS OF USE THEREOF” (THE TRUSTEES OF THE UNIVERSITY OF PENNSYLVANIA, priority 2020, published 2023)

How the values were obtained:
Assay in all cases: cell-based or functional assay
[1] = biological target: AID′-seBE4max fragment containing FKBP12, the DNA deaminase C-terminus, nCas9, and two UGIs in series (human) (UniProt P62942)
[2] = biological target: GFP11-AID*C (AID*-SPL2C) (human) (UniProt Q9GZX7)
[3] = biological target: evoA1-seBE4max fragment containing FKBP12, the DNA deaminase C-terminus, nCas9, and two UGIs in series (rat) (UniProt P62942)

AID′-seBE4max fragment containing the DNA deaminase N-terminus and FRB (from UniProt Q9GZX7 1-72; P42345 2021-2113)
GFP^off cells by flow cytometry, targeting sgRNA, no rapamycin [1]: 7%
GFP^off cells by flow cytometry, targeting sgRNA, with rapamycin (200 nM) [1]: 35%

AID*N-optGFP1-10 (AID*-SPL2N) (from UniProt Q9GZX7 1-72)
in vitro deaminase activity on a labeled oligonucleotide substrate (EC50 of enzyme) (fold reduced from intact AID*) [2]: 4

evoA1-seBE4max fragment containing the DNA deaminase N-terminus and FRB (from UniProt P38483 2-78; P42345 2021-2113)
fold induction of base editing by rapamycin across seven genomic loci [3]: 8.2 fold
on-target base editing across seven genomic loci (deep sequencing), no rapamycin [3]: 3%
on-target base editing across seven genomic loci (deep sequencing), with rapamycin [3]: 28%
